Measured values as given in patent US20200239537.

Experiments:
[1] = test system: N-MeLeu9-apelin-17 A2 (11)

Sequence of recombinant human plasma kallikrein KLKB1 (rhKLKB1, Novoprotein) (chain, as listed by the source): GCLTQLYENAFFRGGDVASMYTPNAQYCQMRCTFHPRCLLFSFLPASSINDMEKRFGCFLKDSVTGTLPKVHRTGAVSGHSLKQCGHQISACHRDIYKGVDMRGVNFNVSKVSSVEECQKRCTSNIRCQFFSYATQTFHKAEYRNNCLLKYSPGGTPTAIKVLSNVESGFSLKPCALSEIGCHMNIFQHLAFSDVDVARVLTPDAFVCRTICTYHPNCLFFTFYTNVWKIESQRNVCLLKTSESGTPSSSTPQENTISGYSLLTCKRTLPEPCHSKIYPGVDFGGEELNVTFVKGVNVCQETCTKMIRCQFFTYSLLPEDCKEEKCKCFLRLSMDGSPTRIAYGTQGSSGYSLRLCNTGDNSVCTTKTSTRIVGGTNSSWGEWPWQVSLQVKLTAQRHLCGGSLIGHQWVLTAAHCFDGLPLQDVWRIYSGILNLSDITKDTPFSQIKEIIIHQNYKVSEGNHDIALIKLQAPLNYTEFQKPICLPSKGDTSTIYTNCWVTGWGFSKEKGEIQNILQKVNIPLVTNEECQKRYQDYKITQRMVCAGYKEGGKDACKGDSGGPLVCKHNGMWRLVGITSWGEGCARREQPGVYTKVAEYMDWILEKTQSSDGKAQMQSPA

“recombinant human plasma kallikrein KLKB1 (rhKLKB1, Novoprotein)” was tested, and the Km (apelin-17 A2 (5)) was 30 µM, the kcat (1/S) (apelin-17 A2 (5)) was 1.4 1/S and the kcat/Km (1/MS) (apelin-17 A2 (5)) was 47000 1/MS. The Km [1] was 245 µM, the kcat (1/S) [1] was 16.5 1/S and the kcat/Km (1/MS) [1] was 67000 1/MS. The Km (apelin-17 (2)) was 97 µM, the kcat (1/S) (apelin-17 (2)) was 13.7 1/S and the kcat/Km (1/MS) (apelin-17 (2)) was 140000 1/MS.
